Measurements from article PMC3655264 (2010).
Where no end group is shown, it is not given here. [ ]: non-standard residue; d: D form. The star is where a group is joined. MPB‑DPPE = 1,2-dipalmitoyl-sn-glycero-3-phosphoethanolamine-N-[4-(p-maleimidophenyl)butyramide], CCCCCCCCCCCCCCCC(=O)OC[C@H](COP(=O)(O)OCCNC(=O)CCCc1ccc(N2C(=O)CC(*)C2=O)cc1)OC(=O)CCCCCCCCCCCCCCC; pS = N[C@@H](COP(=O)(O)O)C(=O)O

Columns and labels:
[1] = biological target: T1, AP2 core (recombinant; α trunk, β2 trunk, myc-tagged μ2, σ2) (UniProt P63010 1-592; P84092 1-236; P84092 237-435; P62743 1-142); experiment: SPR; liposomes with 10% PtdIns4,5P2 + 1% CD4P
T1 sequence (chain, as listed by the source, chain 1 of 4): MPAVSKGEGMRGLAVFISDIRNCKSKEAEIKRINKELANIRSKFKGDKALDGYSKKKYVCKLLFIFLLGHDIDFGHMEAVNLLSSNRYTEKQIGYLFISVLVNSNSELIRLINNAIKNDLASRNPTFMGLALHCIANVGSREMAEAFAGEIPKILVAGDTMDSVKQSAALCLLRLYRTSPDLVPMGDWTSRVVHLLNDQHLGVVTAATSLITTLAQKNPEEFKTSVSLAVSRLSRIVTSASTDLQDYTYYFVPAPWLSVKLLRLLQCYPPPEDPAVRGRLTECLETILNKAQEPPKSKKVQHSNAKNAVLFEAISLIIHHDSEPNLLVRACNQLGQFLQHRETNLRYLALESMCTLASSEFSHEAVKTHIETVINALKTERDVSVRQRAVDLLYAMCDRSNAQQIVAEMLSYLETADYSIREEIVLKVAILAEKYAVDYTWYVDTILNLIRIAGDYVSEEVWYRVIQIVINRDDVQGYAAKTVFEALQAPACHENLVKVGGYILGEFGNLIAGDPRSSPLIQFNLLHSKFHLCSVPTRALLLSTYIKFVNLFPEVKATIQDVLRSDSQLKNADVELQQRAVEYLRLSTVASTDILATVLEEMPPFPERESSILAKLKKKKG
T1 sequence (P63010 1-592, chain 2 of 4): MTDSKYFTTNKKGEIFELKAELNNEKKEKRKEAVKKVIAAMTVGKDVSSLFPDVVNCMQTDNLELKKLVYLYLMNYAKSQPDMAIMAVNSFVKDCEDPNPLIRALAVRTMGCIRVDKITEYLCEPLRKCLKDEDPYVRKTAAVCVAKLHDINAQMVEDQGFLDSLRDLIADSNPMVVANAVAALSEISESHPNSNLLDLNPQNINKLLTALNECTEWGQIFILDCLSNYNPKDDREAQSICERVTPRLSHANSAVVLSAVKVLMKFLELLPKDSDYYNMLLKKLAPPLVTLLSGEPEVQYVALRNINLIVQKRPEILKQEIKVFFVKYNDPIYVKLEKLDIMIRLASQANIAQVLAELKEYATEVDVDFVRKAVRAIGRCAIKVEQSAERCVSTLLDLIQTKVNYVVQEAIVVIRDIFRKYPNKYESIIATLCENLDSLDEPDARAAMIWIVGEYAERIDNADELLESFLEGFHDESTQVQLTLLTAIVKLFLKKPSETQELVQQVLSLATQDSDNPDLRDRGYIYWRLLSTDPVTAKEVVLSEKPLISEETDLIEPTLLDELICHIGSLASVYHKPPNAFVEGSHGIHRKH
T1 sequence (P84092 other isoform, or with tags, fused parts or gaps, chain 3 of 4): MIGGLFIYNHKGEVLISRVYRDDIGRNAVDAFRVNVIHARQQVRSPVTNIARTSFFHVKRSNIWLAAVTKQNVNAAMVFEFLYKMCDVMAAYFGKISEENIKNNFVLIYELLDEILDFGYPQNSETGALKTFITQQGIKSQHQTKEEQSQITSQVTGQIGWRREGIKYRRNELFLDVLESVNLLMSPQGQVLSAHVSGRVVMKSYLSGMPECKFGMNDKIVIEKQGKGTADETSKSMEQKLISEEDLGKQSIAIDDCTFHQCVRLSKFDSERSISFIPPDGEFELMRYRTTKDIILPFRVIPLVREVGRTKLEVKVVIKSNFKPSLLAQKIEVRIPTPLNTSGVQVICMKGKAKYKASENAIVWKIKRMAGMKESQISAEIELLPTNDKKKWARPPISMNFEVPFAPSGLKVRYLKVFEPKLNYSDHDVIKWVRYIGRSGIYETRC
T1 sequence (P62743 whole entry, chain 4 of 4): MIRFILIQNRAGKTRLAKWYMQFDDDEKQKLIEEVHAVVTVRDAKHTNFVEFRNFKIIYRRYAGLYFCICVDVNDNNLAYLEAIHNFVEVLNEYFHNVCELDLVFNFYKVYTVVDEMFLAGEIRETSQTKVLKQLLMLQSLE

μ2 KRR>E Core [2] = biological target: T2, μ2 KRR>E Core (Rattus norvegicus (alpha2, mu2), Homo …); experiment: SPR; liposomes with 10% PtdIns4,5P2 + 1% CD4P
T2 sequence (chain, as listed by the source, chain 1 of 4): as the sequence (chain, as listed by the source, chain 1 of 4) above
T2 sequence (chain, as listed by the source, chain 2 of 4): as the sequence (P63010 1-592, chain 2 of 4) above
T2 sequence (chain, as listed by the source, chain 3 of 4): as the sequence (P84092 other isoform, or with tags, fused parts or gaps, chain 3 of 4) above, with K167E, R169E, R170E counted along it
T2 sequence (chain, as listed by the source, chain 4 of 4): as the sequence (P62743 whole entry, chain 4 of 4) above

μ2 5K>E Core [3] = experiment: SPR; liposomes with 10% PtdIns4,5P2 + 1% CD4P
[4] = biological target: T3, μ2^PIP-Core (AP2 core with the μ2 mutations 5K>E and KRR>E combined) (UniProt P63010 1-592; P84092 1-236; P84092 237-435; P62743 1-142); experiment: SPR; liposomes with 10% PtdIns4,5P2 + 1% CD4P
[5] = biological target: β2^PIP-Core (AP2 core with β2 Lys5, Lys12, Lys26, Lys27, Lys29, Lys36 mutated to glutamate) (UniProt P63010 1-592; P84092 1-236; P84092 237-435; P62743 1-142, Lys5 to glutamate | Lys12 to glutamate | Lys26 to glutamate | Lys27 to …); experiment: SPR; liposomes with 10% PtdIns4,5P2 + 1% TGN38
β2^PIP-Core (AP2 core with β2 Lys5, Lys12, Lys26, Lys27, Lys29, Lys36 mutated to glutamate), sequence (P18484 other isoform, or with tags, fused parts or gaps with the stated changes, chain 1 of 4): as the sequence (chain, as listed by the source, chain 1 of 4) above
β2^PIP-Core (AP2 core with β2 Lys5, Lys12, Lys26, Lys27, Lys29, Lys36 mutated to glutamate), sequence (P63010 other isoform, or with tags, fused parts or gaps with the stated changes, chain 2 of 4): as the sequence (P63010 1-592, chain 2 of 4) above, with K5E, K12E, K26E, K27E, K29E, K36E counted along it
β2^PIP-Core (AP2 core with β2 Lys5, Lys12, Lys26, Lys27, Lys29, Lys36 mutated to glutamate), sequence (Q96CW1 other isoform, or with tags, fused parts or gaps with the stated changes, chain 3 of 4, further chain): as the sequence (P84092 other isoform, or with tags, fused parts or gaps, chain 3 of 4) above
β2^PIP-Core (AP2 core with β2 Lys5, Lys12, Lys26, Lys27, Lys29, Lys36 mutated to glutamate), sequence (B2R4Z4 whole entry, stated change not applied, chain 4 of 4, further chain): as the sequence (P62743 whole entry, chain 4 of 4) above

[6] = biological target: T1, AP2 core (recombinant; α trunk, β2 …); experiment: SPR; liposomes with 10% PtdIns4,5P2 + 1% TGN38
μ2 KRR>E Core [7] = biological target: T2, μ2 KRR>E Core; experiment: SPR; liposomes with 10% PtdIns4,5P2 + 1% TGN38
μ2 5K>E Core [8] = experiment: SPR; liposomes with 10% PtdIns4,5P2 + 1% TGN38
[9] = biological target: α^PIP-Core (AP2 core with mutations in the PtdIns4,5P2-binding site on α) (UniProt P63010 1-592; P84092 1-236; P84092 237-435; P62743 1-142); experiment: SPR; liposomes with 10% PtdIns4,5P2 + 1% TGN38
[10] = biological target: T3, μ2^PIP-Core (AP2 core with the μ2 …); experiment: SPR; liposomes with 10% PtdIns4,5P2 + 1% TGN38

Binder	Kd [1] [nM]	Kd (μ2 KRR>E Core [2]) [nM]	Kd (μ2 5K>E Core [3]) [nM]	Kd [4] [nM]	Kd [5] [µM]	Kd [6] [nM]	Kd (μ2 KRR>E Core [7]) [nM]	Kd (μ2 5K>E Core [8]) [nM]	Kd [9] [µM]	Kd [10] [µM]
C(1,2‑dipalmitoyl‑sn‑glycero‑3‑phosphoethanolamine‑N‑(4-(p-maleimidophenyl)butyramide))HRRRQAERM[pS]QIKRLLSEK	820	850	950	2500						
C(MPB‑DPPE)KVTRRPKASDYQRL [lipid-linked TGN38 sorting motif peptide (CKVTRRPKASDYQRL) displayed in liposomes]					20	320	330	520	> 30	6.2
